Consider one sequence from US20140322759.

Substitutions are numbered along the chain they refer to.

Common to all, as to test: EMSA
For orientation: Mobility shift assays separate free from complexed probe on a gel.

Data set [1] concerns the target T1, phi29 DNA polymerase G197D G197D (Bacillus phage phi29) (UniProt P03680).
T1 sequence: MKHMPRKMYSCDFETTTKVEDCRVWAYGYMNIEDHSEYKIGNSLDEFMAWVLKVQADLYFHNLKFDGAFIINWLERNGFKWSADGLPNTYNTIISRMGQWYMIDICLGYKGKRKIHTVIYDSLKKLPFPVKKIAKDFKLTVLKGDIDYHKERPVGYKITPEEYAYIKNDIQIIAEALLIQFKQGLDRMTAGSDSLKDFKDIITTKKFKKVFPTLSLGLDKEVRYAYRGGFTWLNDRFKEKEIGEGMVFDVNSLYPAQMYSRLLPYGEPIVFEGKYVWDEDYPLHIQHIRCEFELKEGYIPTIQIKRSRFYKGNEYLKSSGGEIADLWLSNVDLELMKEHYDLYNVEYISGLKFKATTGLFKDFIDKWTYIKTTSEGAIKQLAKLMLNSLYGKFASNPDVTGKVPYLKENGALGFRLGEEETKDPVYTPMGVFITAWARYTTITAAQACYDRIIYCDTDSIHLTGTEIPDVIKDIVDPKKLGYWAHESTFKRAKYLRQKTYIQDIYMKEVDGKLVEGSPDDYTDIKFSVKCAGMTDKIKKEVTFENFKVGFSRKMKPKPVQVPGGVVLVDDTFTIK
Conditions: SD 25.7; unit not given (μM in assay); pH 7.9, 66 mM K-acetate, 30 C.

Data set [2] addresses T2, phi29 DNA polymerase wild-type (Bacillus phage phi29) (UniProt P03680).
T2 sequence: T1 sequence with D197G
Conditions: SD 5.7; unit not printed in table (enzyme titrated 0-600 μM, 2 μM DNA as printed); Tris-acetate pH 7.9, 66 mM K-acetate, no Mg listed, 30 C.

Data set [3] concerns the target T3, phi29 DNA polymerase E515A E515A (Bacillus phage phi29) (UniProt P03680).
T3 sequence: T1 sequence with D197G, E515A
Conditions: SD 56.5; unit not given (μM in assay); pH 7.9, 66 mM K-acetate, 30 C.

Data set [4] deals with T4, phi29 DNA polymerase Q497P Q497P (Bacillus phage phi29) (UniProt P03680).
T4 sequence: T1 sequence with D197G, Q497P
Conditions: SD 50.2; unit not given (μM in assay); pH 7.9, 66 mM K-acetate, 30 C.

One may read the Kd as the concentration at which binding is half-saturated. As to “GATCACAGTGAGTAC / TCTATTGTACTCACTGTGATC [15-mer/21-mer primer/template]”, the Kd is 51 µM in data set [1], 76 µM in data set [2], 97 µM in data set [3] and 73 µM in data set [4].
